11 molecules from patent US20120315267A1 (GlaxoSmithKline, published 2012) can be followed below.

What all share (experiment): cell-based or functional assay
For assay [1], the target named is T1, human IL-8 (human, UniProt P10145 28-99, limits assumed).
T1 sequence (looked up): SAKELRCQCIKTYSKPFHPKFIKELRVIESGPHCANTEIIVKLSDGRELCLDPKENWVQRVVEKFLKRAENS

In assay [2] the target is T2, human Gro-alpha (human, UniProt P09341 35-107).
T2 sequence (looked up): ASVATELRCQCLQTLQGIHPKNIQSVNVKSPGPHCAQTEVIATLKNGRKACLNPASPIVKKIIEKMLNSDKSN

Assay [3] has as its target T3, human Gro-beta (human, UniProt P19875 35-107).
T3 sequence (looked up): T2 sequence (looked up) with S2P, V3L, P20L, N27K, R48Q, I58M, N68K, S69N, D70G

Assay [4] has as its target T4, human Gro-gamma (human, UniProt P19876 35-107).
T4 sequence (looked up): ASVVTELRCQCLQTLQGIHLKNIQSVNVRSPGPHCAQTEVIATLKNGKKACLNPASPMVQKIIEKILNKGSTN

Assay [5] deals with T5, human ENA-78 (human, UniProt P42830 37-114, limits assumed).
T5 sequence (looked up): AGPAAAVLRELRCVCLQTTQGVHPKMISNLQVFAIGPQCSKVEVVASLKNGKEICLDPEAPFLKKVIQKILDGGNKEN

Assay [6] has as its target T6, human GCP-2 (human, UniProt P80162 38-114, limits assumed).
T6 sequence (looked up): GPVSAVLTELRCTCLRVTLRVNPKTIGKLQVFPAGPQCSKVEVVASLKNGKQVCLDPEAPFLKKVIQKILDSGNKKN

Assay [7] deals with T7, human NAP2 (human, UniProt P02775 59-128).
T7 sequence (looked up): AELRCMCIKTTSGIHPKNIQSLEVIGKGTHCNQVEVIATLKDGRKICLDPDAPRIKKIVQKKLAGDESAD

Numbering of substitutions follows the chain as printed.

B1: 7A12.1F10 (antibody, IgG1, V domains shown)
VH: QVQLQQSGAELVKPGASVKLSCKASGYIFTSNDINWVRQRPEQGLEWIGWIFPGDNSTKFNEKFRDKATLTTDKSSSTAYMQLSGLTSEDSAVYFCATFYGSTYGYYFDYWGQGTTLTVSS
VL: DIVMTQSHKFMSTSVGDRVSITCKASQDVGTAVAWYQQKPGQSPKLLIYWTDTRHTGVPDRFTGSGSGTDFTLTISNVESEDCVDYFCHQYNNYPLTFGAGTKLELK
In the case of B1, the “FLIPR IC50” value is more than 200 mg/L in assay [1]; 9.9 mg/L in assay [2]; more than 200 mg/L in assay [3]; more than 200 mg/L in assay [4]; 2.4 mg/L in assay [5]; 124 mg/L in assay [6]. Besides, the “FLIPR IC50” value in assay [7] is more than 200 mg/L.

B2: 2X907.15 (antibody, IgG1, V domains shown)
VH: EVKLVESGGGLVKPGGSLKLSCAASGFTFSDYYMYWVRQSPEKRLEWVATVSDVGSYTYYSGSVRGRFTISRDNAKNNLYLQMSSLQSEDTAIYYCSRDRTLDYWGQGTSVIVTS
VL: QIVLTQSPAIMSASPGEKVTITCNASSSVSYMHWFQQKPGTSPKLWIYSTSNLASGVPARFSGSGSGTSYSLTISRMEAEDAATYYCHQRSSFPPTFGGGTKLEIK
As to B2, the “FLIPR IC50” value is more than 67 mg/L in assay [1]; more than 67 mg/L in assay [2]; more than 67 mg/L in assay [3]; more than 67 mg/L in assay [4]; 2.6 mg/L in assay [5]; more than 67 mg/L in assay [6]. For the same molecule, the “FLIPR IC50” value in assay [7] was more than 67 mg/L.

B3: 1A1.4C6 (antibody, IgG1, V domains shown)
VH: EVQLQQSGPELVKPGASVKISCKASGYTFIDYYMNWVKQSQGKSLEWIGDVNPDDGDTTYNQQFKDKATLTVDKSSSTAYMELRSLTSEDSAVYYCARDDRTSGYFDVWGTGTTVTVSS
VL: DIQMTQSTSSLSASLGDRVTISCRASQDIRNYLNWFQQKPDGTVKLLIYYTSIVHSRVPSRFSGSGSGTDYSLTINNLDQEDIATYFCQQANTLPWTFGGGTKLETK
Regarding B3, the “FLIPR IC50” value in assay [1] was more than 200 mg/L; in assay [2], 2.4 mg/L; in assay [3] it was more than 168 mg/L; in assay [4], 19.2 mg/L; in assay [5], 12.3 mg/L; in assay [6] it was 11.2 mg/L. Moreover, the “FLIPR IC50” value in assay [7] came to 123 mg/L.

B4: 2B12.1E1 (antibody, IgG2c, V domains shown)
VH: EVQLQQSGPELVKPGASVKISCKASGYTFTDYYMNWVKQSHGKSLEWIGDINPNNGNTNYNQKFKGKATLTVDKSSSTAYMEFRSLTSEDSAVYYCAGLGRIFDYWGQGTTLTVSS
VL: ENVLTQSPAIMSASPGEKVTMTCRASSSVSSTFLHWYQQKSGASPKLWIYSTSDLASGVPARFSGSGSGTSYSLTISSVEAEDAATYYCQQYSGYPWTFGGGTKLEIK
As for B4, the “FLIPR IC50” value in assay [1] was 1.6 mg/L; in assay [2] it was more than 67 mg/L; in assay [3], more than 65.5 mg/L; in assay [4], more than 67 mg/L; in assay [5] it was more than 67 mg/L; in assay [6], 40.9 mg/L. Also, in assay [7], the “FLIPR IC50” value was more than 67 mg/L.

B5: 1L351.17 (antibody, IgG2b, V domains shown)
VH: QAYLQQSGAELVRPGASVKMSCKASGYTFTSYNMHWVKQTPRQGLEWIGAIYPGNGDTSYNQKFKGKATLTVDKSSSTAYMQLSSLTSEDSAVYFCARDLYYFDYWGQGTTLTVSS
VL: B4 VL with S14F, F33Y, Y92F
Regarding B5, the “FLIPR IC50” value was more than 67 mg/L in assay [1]; 1.92 mg/L in assay [2]; 1.02 mg/L in assay [3]; 3.17 mg/L in assay [4]; more than 67 mg/L in assay [5]; more than 67 mg/L in assay [6]. Moreover, the “FLIPR IC50” value in assay [7] was more than 67 mg/L.

B6: 17D1.1D2 (antibody, IgG2c, V domains shown)
VH: B4 VH with V37L, K38R, N57G, G66N, F83L, Y94F
VL: B4 VL with S14F, F33Y, Y92F
Regarding B6, the “FLIPR IC50” value in assay [1] is 2.5 mg/L; in assay [2] it was more than 146 mg/L; in assay [3], 81.6 mg/L; in assay [4], 144 mg/L; in assay [5], more than 200 mg/L; in assay [6] it was more than 200 mg/L. For the same molecule, the “FLIPR IC50” value in assay [7] was more than 200 mg/L.

B7: 1L132.23 (antibody, IgG1, V domains shown)
VH: QVQLQQPGAELVKPGASVKVSCKASGYTFTNYWMHWVRQRPGQGLEWIGRIHPSDNDTNYNQKFKDKATLTVDKSSNTAYMQLSSLTSEDSAVYYCAIGVYDGFIGLWGQGTSVTVSS
VL: DIQMTQSPASQSASLGESVTITCLASQTIGTWLAWYQQKPGKSPQLLIYAATRLADGVPSRFSGSGSGTKFSFKISSLQAEDFVSYYCQQLSSTPWTFGGGTKLEIK
For the molecule B7, the “FLIPR IC50” value in assay [1] is more than 67 mg/L; in assay [2], more than 67 mg/L; in assay [3], 0.69 mg/L; in assay [4], more than 67 mg/L; in assay [5] it was more than 67 mg/L; in assay [6] it was more than 67 mg/L. Further, in assay [7], the “FLIPR IC50” value is more than 67 mg/L.

B8: 2X352.3 (antibody, IgG1, V domains shown)
VH: QIQLVQSGPELKKPGETVKISCKASGYTLTYYGIHWVTQTPGKGLNWMGWINTNTGEPTYVEEFKGRFAFSLETSASTAYLQITDLKNEDTATYFCAKATYDGYSDYWGQGTTLTVSS
VL: DIQMTQSPASLSVSVGESVTITCRASENIYSNLAWYQQKQGKSPQLLVYDATNLAHGVPSRFSGSGSGTQFSLRINSLQSEDFGSYYCQHFWGTPLTFGAGTRLELK
As for B8, the “FLIPR IC50” value in assay [1] was more than 67 mg/L; in assay [2] it was 2.06 mg/L; in assay [3], 1.12 mg/L; in assay [4] it was 7.43 mg/L; in assay [5], 4.99 mg/L; in assay [6], more than 67 mg/L. Moreover, the “FLIPR IC50” value in assay [7] is more than 67 mg/L.

B9: 2X810.3 (antibody, IgG1, V domains shown)
VH: QIQLQQSGPEVVKPGASVKISCKASGYIFTDNYIDWVQQRPGQGLEWIGWIFPGSGNTKYNEKFKGKATLTVDTFSSTAYMQLSSLTSEDTAVYFCAREIDYDYDGFFDVWGAGTTVTVSS
VL: DIVMTPSHTFMSTSVGDRVIITSKASQDVGSAVAWYQQKPGQSPTLLIYWASTRHTGVPDRFTGSGSGTDFTLTISNLQSEDLADYFCQQYSTYPLTFGAGTKLELK
As for B9, the “FLIPR IC50” value in assay [1] is more than 67 mg/L; in assay [2], more than 67 mg/L; in assay [3] it was more than 67 mg/L; in assay [4], more than 67 mg/L; in assay [5], 14.6 mg/L; in assay [6], 24.6 mg/L. The “FLIPR IC50” value in assay [7] was more than 67 mg/L.

B10: 9D12.1H4 (antibody, IgG1, V domains shown)
VH: EVQLQQSGPELVKPGASVRMSCKASGNTVIDYNIHWVKQSQGKSLEWIGYINPNSGGTGYNEKFKDKATLTINKSSSTAHMDLRSLTSEDSAVYYCTRFDFWGQGTTLTVSS
VL: DVLMTQTPLSLPVSLGDQASISCRSTQSIVPVNGNTHLEWYLHKPGQSPKLLIYKVSNRFSGVPDRFSGSGSGTDFTLKISRVEAEDLGVYYCFQASHVPWTFGGGTKLEIK
As to B10, the “FLIPR IC50” value in assay [1] was 3.4 mg/L; in assay [2], more than 67 mg/L; in assay [3], more than 67 mg/L; in assay [4], more than 67 mg/L; in assay [5] it was 14.4 mg/L; in assay [6], 6.6 mg/L. Besides, in assay [7], the “FLIPR IC50” value was more than 67 mg/L.

B11: 5D2.2D10 (antibody, V domains shown)
VH: QIQLVQSGPELKKPGETVKISCKASGYIFTAYGMSWVKQAPGKGLKWMGWINTYSGVPTYADHFKGRFDFSLETSASTAYLQINNLKNEDTATYFCARPTVVDPWYFDVWGTGTTVTVSS
VL: DIQMTQSPASLSVSVGETVTITCRASENIYSNLAWYQQKQGKSPQLLVYAATNLGDGVPSRFSGSGSGTQYSLKINSLQSEDFGSYYCQHFWTTPWTFGGGTKLEIK
As for B11, the “FLIPR IC50” value was more than 200 mg/L in assay [1]; more than 200 mg/L in assay [2]; 77.4 mg/L in assay [3]; more than 200 mg/L in assay [4]; 4.7 mg/L in assay [5]; more than 200 mg/L in assay [6]. The “FLIPR IC50” value in assay [7] was more than 200 mg/L.
